Reference: patent US20210155689A1 (SHANGHAI PHARMAEXPLORER, published 2021)

Assays:
[1] = molecular target: T1, hFc tagged monkey LAG-3 protein (cLAG-3-hFc protein) (monkey; human); assay: ELISA, cLAG-3-hFc coated; 0.0667 nM
T1 construct: Made in HEK293 cells; also called monkey LAG-3 extracellular domain protein; not shown: human IgG Fc fragment (hFc) of the pCpC vector
T1 chain: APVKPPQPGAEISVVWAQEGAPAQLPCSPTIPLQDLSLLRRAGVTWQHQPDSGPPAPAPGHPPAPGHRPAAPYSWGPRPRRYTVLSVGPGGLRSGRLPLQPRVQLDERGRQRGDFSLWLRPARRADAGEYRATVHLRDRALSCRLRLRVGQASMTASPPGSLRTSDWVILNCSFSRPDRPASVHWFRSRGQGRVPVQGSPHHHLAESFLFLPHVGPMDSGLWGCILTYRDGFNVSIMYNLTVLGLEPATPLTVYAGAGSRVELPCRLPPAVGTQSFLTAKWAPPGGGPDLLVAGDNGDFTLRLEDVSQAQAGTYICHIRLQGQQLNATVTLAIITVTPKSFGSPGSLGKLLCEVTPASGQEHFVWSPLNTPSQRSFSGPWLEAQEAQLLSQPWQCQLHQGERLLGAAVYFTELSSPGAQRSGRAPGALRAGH
Method: (§1) The plate was sealed with plastic film and incubated overnight at 4° C. The plate was washed 2 times with the plate washing solution (PBS+0.01% Tween20) on the next day, and added with the blocking solution (PBS+0.01% Tween20+1% BSA) and blocked at room temperature for 1-2 hours. The blocking solution was poured out, and the plate was added with 50-100 μl of the antibody sample to be tested to each well, incubated at 37° C. for 1-2 hours, and washed 2-3 times with a plate washing solution (PBS+0.01% Tween20). HRP (horseradish peroxidase) labeled secondary antibody was added, and the plate was incubated at 37° C. for 1-2 hours, and washed 2-3 times with a plate washing solution (PBS+0.01% Tween20). 100 μl of TMB substrate was added to each well. After incubated at room temperature for 15-30 minutes, the plate was added with 100 μl of stop solution (1.0N HCl) to each well.

[2] = molecular target: T2, human LAG-3 protein with hFc tag (hLAG-3-hFc protein) (human, UniProt P18627 23-450); assay: ELISA, hLAG-3-hFc coated; 0.0667 nM
T2 construct: also called immunogen 1; LAG-3 extracellular domain protein; not shown: human IgG Fc fragment (hFc) of the pCpC vector
T2 sequence: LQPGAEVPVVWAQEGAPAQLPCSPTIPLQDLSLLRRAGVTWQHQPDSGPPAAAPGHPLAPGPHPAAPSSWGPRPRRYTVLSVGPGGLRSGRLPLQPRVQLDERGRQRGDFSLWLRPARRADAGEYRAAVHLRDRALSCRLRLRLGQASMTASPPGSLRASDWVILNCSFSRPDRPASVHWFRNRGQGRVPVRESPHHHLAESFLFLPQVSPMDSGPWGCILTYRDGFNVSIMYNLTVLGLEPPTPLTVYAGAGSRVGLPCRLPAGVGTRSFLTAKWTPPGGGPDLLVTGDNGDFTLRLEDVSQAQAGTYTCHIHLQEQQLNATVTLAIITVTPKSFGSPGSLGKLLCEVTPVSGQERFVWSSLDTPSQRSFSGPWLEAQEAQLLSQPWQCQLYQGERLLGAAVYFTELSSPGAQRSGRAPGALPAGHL
Method: as §1

[3] = molecular target: T2, human LAG-3 protein with hFc tag …; assay: ELISA, hLAG-3-hFc coated; 66.6670 nM
Method: as §1

[4] = molecular target: T3, mouse LAG-3 protein with hFc tag (mLAG-3-hFc protein) (mouse; human, UniProt Q61790 24-442); assay: ELISA, mLAG-3-hFc coated
T3 construct: Made in HEK293 cells; also called mouse LAG-3 extracellular domain protein; not shown: human IgG Fc fragment (hFc) of the pCpC vector
T3 sequence: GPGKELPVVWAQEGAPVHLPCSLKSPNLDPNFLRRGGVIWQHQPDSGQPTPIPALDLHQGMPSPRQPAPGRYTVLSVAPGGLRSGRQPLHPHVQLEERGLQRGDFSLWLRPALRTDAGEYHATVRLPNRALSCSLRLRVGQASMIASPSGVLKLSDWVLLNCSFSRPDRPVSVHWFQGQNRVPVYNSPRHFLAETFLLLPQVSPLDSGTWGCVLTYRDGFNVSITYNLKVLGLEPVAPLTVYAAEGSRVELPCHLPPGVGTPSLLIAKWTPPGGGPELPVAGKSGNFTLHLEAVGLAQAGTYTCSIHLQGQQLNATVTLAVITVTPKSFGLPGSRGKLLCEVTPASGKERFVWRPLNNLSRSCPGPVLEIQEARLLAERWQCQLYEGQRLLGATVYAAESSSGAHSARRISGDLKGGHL
Method: as §1

B1: 556F6B8 (LAG-3 mouse-human chimeric antibody) (antibody, V domains shown)
VH: RVQLKQSGPGLVQPSQSLSITCTVSGFSLIKYGVHWVRQSPGEGLEWLGVIWRGGITDYNAAFMSRLSITKDNSKSQVFFKMNSLQADDTAIYYCAKWDGPLAMDYWGQGTSVTVSS
VL: DIVMTQSHKFLSTSVGDRVSITCKASQDVGTTVAWYQQKPGQSPKLLIYWASTRHTGVPDRFTGSGSGTDFTLTISNVQSEDLADYFCQQYSSYPYTFGGGTKLEIK
notes: also called 556F8B8
OD450 [1]: 2.43 OD450 | OD450 [2]: 1.94 OD450 | OD450 [3]: 3.69 OD450 | binding result [4]: no binding (tested: 66.6670 nM)

B2: 105F1E10 (LAG-3 mouse-human chimeric antibody) (antibody, V domains shown)
VH: EVQLQQSGPELVKPGASVKMSCRASGYTFTDFKMHWMKQSHGKSLEWIGYIAPNNGGTAYNQKFRGKATLTVNESSNTAYMELRSLTSEDSAVYYCVDWDDVDYWGQGTTLTVSS
VL: DIKMTQSPSSMYASLGERVTITCKASQDINSYLSWFQQKSGKSPKTLIYRANRLVDGVPSRFSGSGSGQDYSLTISSLEYEDMGIYYCLQYVEFPLTFGAGTKLELK
OD450 [1]: 1 OD450 | OD450 [2]: 1.29 OD450 | OD450 [3]: 3.6 OD450 | binding result [4]: no binding (tested: 66.6670 nM)

B3: 405B8H3 (LAG-3 mouse-human chimeric antibody) (antibody, V domains shown)
VH: QVQLQQSGAELVRPGASVTLSCKASGYTFTDYEMHWVKQTPVHGLEWIGATDPETGNSAYNQKFKGKAIMTADKSSSTAYMELRSLTSEDSAVYYCISTGWNDWGQGTSLTVSS
VL: DIKMTQSPSSMYASLGERVTITCKASQDINSYLSWFQQKPGKSPKTLIYRADRLLDGVPSRFSGSGSGQDYSLTISSLEYGDMGIYYCLQYDEFPYTFGGGTKLEIK
notes: also called mouse-human chimeric antibody 405B8H3
OD450 [1]: 1.96 OD450 | OD450 [2]: 2.25 OD450 | OD450 [3]: 3.57 OD450 | binding result [4]: no binding (tested: 66.6670 nM)

B4: 409B11E12 (LAG-3 mouse-human chimeric antibody) (antibody, V domains shown)
VH: QVQLQQSGAELVRPGASVTLSCKASGYTFTDYEMHWVKQTTVHGLEWIGATDPETSYSAYNQKFKGKAILTADKSSSTAYMELRSLTSEDSAVYYCIATGWNDWGQGTSLTVSS
VL: DLKMTQSPSSMYASLGERVTITCKASQDINSYLSWFQQKPGKSPKTLIYRANRLLDGVPSRFSGSGSGQDYSLTISSLEYEDMGIYYCLQYDEFPYTFGGGTKLEIK
OD450 [1]: 1.91 OD450 | OD450 [2]: 2.16 OD450 | OD450 [3]: 3.59 OD450 | binding result [4]: no binding (tested: 66.6670 nM)

B5: 409D4E10 (LAG-3 mouse-human chimeric antibody) (antibody, V domains shown)
VH: QVQLQQSGAELVRPGASVTLSCKASGNTFTDYEMHWVKQTPVHGLEWIGATDPETDNTAYNQKFKGKAILTTDKSSSTAYMELRSLTSEDSAVYYCITSGWNDWGQGTSLTVSS
VL: DIKMTQSPSSMYASLGERVTITCKASQDINSYLSWFQQKPGKSPKTLIYRANRLLDGVPSRFSGSGSGQDYSLTISSLEYEDMGIYYCLQYNEFPYTFGGGTKLEIK
OD450 [1]: 3.05 OD450 | OD450 [2]: 3.1 OD450 | OD450 [3]: 3.73 OD450 | binding result [4]: no binding (tested: 66.6670 nM)
